Source: patent publication US20120282279A1 (COVX TECHNOLOGIES IRELAND, published 2012)

Target: FGF21 cell surface receptor composed of FGFR1c and β-Klotho (on the cells of the bioactivity assays) (UniProt P16092 22-822; Q99N32 1-1043, limits assumed)
Assay: cell-based or functional assay

FGF21 cell surface receptor composed of FGFR1c and β-Klotho (on the cells of the bioactivity assays), sequence (P16092 22-822 limits assumed, chain 1 of 2): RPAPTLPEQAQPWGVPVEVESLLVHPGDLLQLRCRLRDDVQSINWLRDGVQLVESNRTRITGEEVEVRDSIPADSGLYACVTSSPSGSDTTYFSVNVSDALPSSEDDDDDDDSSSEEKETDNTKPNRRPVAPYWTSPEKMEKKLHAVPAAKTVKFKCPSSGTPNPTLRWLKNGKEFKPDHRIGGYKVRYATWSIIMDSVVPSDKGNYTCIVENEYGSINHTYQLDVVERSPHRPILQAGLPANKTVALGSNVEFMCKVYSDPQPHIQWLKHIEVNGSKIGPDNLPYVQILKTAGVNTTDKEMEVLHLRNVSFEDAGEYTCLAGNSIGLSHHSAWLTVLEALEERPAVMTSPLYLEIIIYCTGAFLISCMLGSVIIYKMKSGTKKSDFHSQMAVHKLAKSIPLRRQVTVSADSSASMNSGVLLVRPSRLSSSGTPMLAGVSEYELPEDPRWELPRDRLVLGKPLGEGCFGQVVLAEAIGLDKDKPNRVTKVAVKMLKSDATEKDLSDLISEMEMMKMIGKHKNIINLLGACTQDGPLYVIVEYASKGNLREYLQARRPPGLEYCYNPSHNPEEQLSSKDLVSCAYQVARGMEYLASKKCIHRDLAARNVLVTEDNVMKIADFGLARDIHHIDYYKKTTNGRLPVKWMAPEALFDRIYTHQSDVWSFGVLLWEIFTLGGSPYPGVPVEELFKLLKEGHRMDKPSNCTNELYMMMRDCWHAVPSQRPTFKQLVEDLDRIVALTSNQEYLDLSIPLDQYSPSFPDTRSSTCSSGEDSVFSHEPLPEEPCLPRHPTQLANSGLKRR
FGF21 cell surface receptor composed of FGFR1c and β-Klotho (on the cells of the bioactivity assays), sequence (Q99N32 whole entry, chain 2 of 2): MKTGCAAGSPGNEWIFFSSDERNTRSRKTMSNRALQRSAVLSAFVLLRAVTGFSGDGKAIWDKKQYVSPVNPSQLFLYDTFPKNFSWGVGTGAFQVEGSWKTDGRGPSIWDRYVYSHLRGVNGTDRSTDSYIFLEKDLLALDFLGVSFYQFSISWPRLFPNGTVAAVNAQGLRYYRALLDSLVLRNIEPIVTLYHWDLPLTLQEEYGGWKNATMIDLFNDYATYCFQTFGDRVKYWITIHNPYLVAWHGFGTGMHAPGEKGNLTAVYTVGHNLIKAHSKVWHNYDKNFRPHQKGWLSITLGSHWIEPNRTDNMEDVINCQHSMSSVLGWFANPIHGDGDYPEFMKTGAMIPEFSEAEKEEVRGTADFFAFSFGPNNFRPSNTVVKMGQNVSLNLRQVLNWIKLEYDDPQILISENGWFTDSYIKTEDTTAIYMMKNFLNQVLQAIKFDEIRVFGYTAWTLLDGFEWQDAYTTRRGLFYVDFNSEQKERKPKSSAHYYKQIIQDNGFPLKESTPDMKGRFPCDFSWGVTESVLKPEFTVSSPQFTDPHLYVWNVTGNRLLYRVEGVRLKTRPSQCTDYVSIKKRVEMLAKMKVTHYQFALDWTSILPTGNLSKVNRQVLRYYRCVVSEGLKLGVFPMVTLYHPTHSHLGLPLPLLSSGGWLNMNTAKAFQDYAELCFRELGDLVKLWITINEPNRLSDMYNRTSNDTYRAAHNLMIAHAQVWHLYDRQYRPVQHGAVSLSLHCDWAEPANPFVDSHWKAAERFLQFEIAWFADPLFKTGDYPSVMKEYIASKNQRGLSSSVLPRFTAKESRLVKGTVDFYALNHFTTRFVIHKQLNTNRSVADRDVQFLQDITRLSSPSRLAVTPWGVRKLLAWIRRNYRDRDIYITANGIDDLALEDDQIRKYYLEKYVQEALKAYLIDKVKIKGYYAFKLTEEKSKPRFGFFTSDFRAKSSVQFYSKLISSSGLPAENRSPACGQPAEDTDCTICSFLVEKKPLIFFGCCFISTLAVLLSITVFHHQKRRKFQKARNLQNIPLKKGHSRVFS

Glut1 Taqman unconjugated Protein EC50: 2.3 nM
B1: FGF21ΔH (ligand)
chain: PIPDSSPLLQFGGQVRQRYLYTDDAQQTEAHLEIREDGTVGGAADQSPESLLQLKALKPGVIQILGVKTSRFLCQRPDGALYGSLHFDPEACSFRELLLEDGYNVYQSEAHGLPLHLPGNKSPHRDPAPRGPARFLPLPGLPPAPPEPPGILAPQPPDVGSSDPLSMVGPSQGRSPSYAS
